Source: paper PMC11535055, “ER-phagy restrains inflammatory responses through its receptor UBAC2” (The EMBO Journal, 2024)
Numbering of substitutions follows the chain as printed. Names may count otherwise.

B1: UBAC2, endogenous (natural protein, human (endogenous in HeLa, THP-1, HT-29), UniProt Q8NBM4 36-344, looked up)
chain: HCQKLFVYDLHAVKNDFQIWRLICGRIICLDLKDTFCSSLLIYNFRIFERRYGSRKFASFLLGSWVLSALFDFLLIEAMQYFFGITAASNLPSGFLAPVFALFVPFYCSIPRVQVAQILGPLSITNKTLIYILGLQLFTSGSYIWIVAISGLMSGLCYDSKMFQVHQVLCIPSWMAKFFSWTLEPIFSSSEPTSEARIGMGATLDIQRQQRMELLDRQLMFSQFAQGRRQRQQQGGMINWNRLFPPLRQRQNVNYQGGRQSEPAAPPLEVSEEQVARLMEMGFSRGDALEALRASNNDLNVATNFLLQH
notes: UBAC2 endogenous in human cell lines; also called ubiquitin-associated domain-containing protein 2; source: endogenous, lysates of HeLa cells, THP-1-derived macrophages and HT-29 cells
B2: UBAC2 wild type, transfected (cross-linking experiments) (natural protein, human, UniProt Q8NBM4 36-344, looked up)
chain: B1 chain
notes: UBAC2, human; also called WT UBAC2
B3: UBAC2 S223D, transfected (cross-linking experiments) (natural protein, human, UniProt Q8NBM4 36-344, looked up)
chain: B1 chain with S188D
notes: UBAC2, human; also called S223D mutant form of UBAC2

Key:
GABARAP = GABARAP (UniProt O95166); test: co-IP Flag-GABARAP with HA-UBAC2; conditions: reference: wild type; sites S223
[1] = biological target: the molecule itself; test: cross-linking; extracts of HeLa cells (also WT THP-1 macrophages and HT-29 cells) treated with TG or EBSS in the presence of Baf A1 (0.2 uM); 2 mM disuccinimidyl suberate (DSS), immunoblot for endogenous UBAC2
[2] = biological target: the molecule itself; test: cross-linking; 293T cells transfected with WT UBAC2 or S223 mutants, TG (1 uM, 1 h) or EBSS (3 h) with Baf A1 (0.2 uM), with scramble or MARK2 siRNA; lysates treated with 2 mM DSS, immunoblot

Molecule	stoichiometry N [2]	other results
UBAC2 (from UniProt Q8NBM4) S223A		binding against the reference (GABARAP): weaker
B1		stoichiometry N [1]: 2
B2	2	
B3	2	
